{"source": "paper doi:10.1101/2020.11.14.20231811", "binders": {"B1": {"name": "CoV2-RBD-1C, MB/thiol-modified (structured_DNA)", "DNA": "CAGCACCGACCTTGTGCTTTGGGAGTGCTGGTCCAAGGGCGTTAATGGACA", "modifications": "5' methylene blue; 3' thiol C3 (ThioMC3-D)"}}, "target": "SARS-CoV-2 spike S1 subunit (SARS-CoV-2, UniProt P0DTC2 13-685)", "experiment": "phosphate buffer"}
{"binder": "B1", "values": [{"measurement": "binding result", "value": "binds"}]}
